From the supplement of paper PMC10724198
± gives the standard deviation of the averaged measurements.

System: Saccharomyces cerevisiae
Assay: protein stability index of tFT-peptide fusion (C-terminal peptide) (PSI (0-1 scale)); higher = more stable (slower turnover)
Details: genetic background: wild type; temperature: 30 C
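Further: PSI is a weighted mean of sequencing reads over stability bins, variants kept only with over 10 reads, mCherry proximal and sfGFP distal, peptide attached via GGGS linker.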

Row | Sequence | protein stability index
1 | NWLYPYSLRRRG | 0.663 ± 0.13
2 | PAAPPLGFTRTD | 0.7 ± 0.0095
3 | PAELGAGYVMGG | 0.699 ± 0.022
4 | PAGSRGRHSRER | 0.712 ± 0.061
5 | PAGVPPAVCRDL | 0.609 ± 0.0092
6 | PAHSLPPPPPPP | 0.702 ± 0.041
7 | PALPHQPLPRPQ | 0.797 ± 0.023
8 | PALPPLPPPPPA | 0.71 ± 0.016
9 | PALPPPVLLRLP | 0.557 ± 0.062
10 | PALPTPILSSPP | 0.709 ± 0.012
11 | PAPLPFPPPSLP | 0.701 ± 0.032
12 | PAPLPPPAPSST | 0.69 ± 0.02
13 | PAPLRSPLVLPS | 0.721 ± 0.039
14 | PAPPPPPPGTAA | 0.641 ± 0.061
15 | PAPPPQSPAPYR | 0.704 ± 0.049
16 | PAPPRSLPPSSP | 0.6536 ± 0.0058
17 | PARPPPPRPPPP | 0.712 ± 0.03
18 | PASLSPAVPESS | 0.719 ± 0.044
19 | PASPCTPLPFSP | 0.686 ± 0.04
20 | PASPTLRPYWDP | 0.645 ± 0.068
21 | PASSAPDSSTAH | 0.7406 ± 0.0052
22 | PAVIVAPYSQGE | 0.701 ± 0.025
23 | PAVSLPPPAPAS | 0.721 ± 0.051

Row | Sequence | protein stability index
24 | PAYACLCGFGIA | 0.62754 ± 0.00056
25 | PCGLRLAFRLSL | 0.619 ± 0.038
26 | PCHPGASLRRRL | 0.861 ± 0.067
27 | PCPHPLRPALIL | 0.704 ± 0.014
28 | PCPLPVPCCLRP | 0.636 ± 0.016
29 | PCPRIPSSRRLA | 0.574 ± 0.044
30 | PCRANRRLVTSP | 0.628 ± 0.056
31 | PCVISRPPRLFP | 0.752 ± 0.06
32 | PDGGPGLLRFVL | 0.64 ± 0.015
33 | PDLEMQMTRTRG | 0.70081 ± 0.00044
34 | PDLLHLPAHRHA | 0.6722 ± 0.0055
35 | PDLPHYHPPPPL | 0.727 ± 0.011
36 | PDRPVISLLLPS | 0.646 ± 0.079
37 | PEGCQDGASPAE | 0.759 ± 0.021
38 | PEGLKKKKEKRI | 0.706 ± 0.049
39 | PELLGVARDGFR | 0.65 ± 0.0097
40 | PESTPRVHSNDY | 0.691 ± 0.027
41 | PFFSFLYPRFYF | 0.682 ± 0.0096
42 | PFFVRNTFTCSL | 0.735 ± 0.11
43 | PFLRPPSPPSSP | 0.66 ± 0.013
44 | PFPFSLPSPPLP | 0.551 ± 0.14
45 | PFPLPPLHSSHR | 0.734 ± 0.03
46 | PFPPRPPSDRIR | 0.659 ± 0.088

Row | Sequence | protein stability index
47 | PFPPTPVRRVPL | 0.715 ± 0.025
48 | PFPRGCCRLLSP | 0.707 ± 0.012
49 | PFRPPPRFPPPV | 0.815 ± 0.042
50 | PFSAPRRLPRTV | 0.697 ± 0.0089
51 | PFSGLPVRCELC | 0.672 ± 0.048
52 | PFSLPAFLLPTL | 0.712 ± 0.053
53 | PFSLPPPRPPRP | 0.684 ± 0.045
54 | PFSNFFFRLSFS | 0.665 ± 0.028
55 | PFSPHPGPPPPP | 0.7659 ± 0.002
56 | PFSTWLSSPSLP | 0.774 ± 0.07
57 | PFVGSSPFPLCL | 0.645 ± 0.042
58 | PFVPPPHRDDSP | 0.746 ± 0.082
59 | PGATSAIPPPFT | 0.738 ± 0.03
60 | PGGLSCPSPPTI | 0.676 ± 0.057
61 | PGLPLPPFPFFS | 0.762 ± 0.047
62 | PGNFLSVSMSIC | 0.649 ± 0.051
63 | PGPLVFPLPLAC | 0.578 ± 0.036
64 | PGPSPSPPLPRF | 0.748 ± 0.014
65 | PGPSPVLPPPPP | 0.633 ± 0.038
66 | PGRFVVGAGRED | 0.686 ± 0.024
67 | PGSTCWLFEFLS | 0.711 ± 0.07
68 | PGTATRAPQLIP | 0.727 ± 0.033
69 | PHAPHPPALTPP | 0.623 ± 0.072

Row | Sequence | protein stability index
70 | PHAPSHLPSSLP | 0.712 ± 0.025
71 | PHDPHNTATNQG | 0.721 ± 0.016
72 | PHDRSPPHGPKL | 0.742 ± 0.1
73 | PHLDSPGPLAII | 0.682 ± 0.023
74 | PHLPPSLFPSPP | 0.659 ± 0.073
75 | PHLRTRRPPLLH | 0.694 ± 0.01
76 | PHLTTPATPVLL | 0.716 ± 0.023
77 | PHPPHPPPPPPS | 0.689 ± 0.036
78 | PHPPPSPGPSPP | 0.707 ± 0.11
79 | PHPPRPPRAPPP | 0.634 ± 0.024
80 | PHPPRPSTPPPT | 0.637 ± 0.059
81 | PHPRSVSPPPPS | 0.624 ± 0.075
82 | PHPSAAPPPNPP | 0.759 ± 0.062
83 | PHPSLPGPFPHP | 0.7049 ± 0.0045
84 | PHPWTSPPAPPP | 0.698 ± 0.022
85 | PHRLLTQITTGT | 0.746 ± 0.12
86 | PIAASAPPLCPR | 0.692 ± 0.014
87 | PIALPSPSSPIF | 0.669 ± 0.015
88 | PIFQGTCPSTFV | 0.675 ± 0.02
89 | PIFVCPFPGSLV | 0.683 ± 0.065
90 | PIGLCLYNSPRF | 0.662 ± 0.035
91 | PILPPLVPSSRL | 0.769 ± 0.07
92 | PIMESARGFLCV | 0.658 ± 0.052

Row | Sequence | protein stability index
93 | PINIERNKRIKR | 0.733 ± 0.021
94 | PIPAPFFLAPPL | 0.731 ± 0.06
95 | PIPPPPPLRPSS | 0.69 ± 0.011
96 | PIPTQYPPPKAP | 0.675 ± 0.069
97 | PKKDNIQLQKPA | 0.694 ± 0.028
98 | PKPPPSSGRCPA | 0.633 ± 0.011
99 | PKRHLTFLPRGV | 0.662 ± 0.036
100 | PKWSVTPVAANL | 0.695 ± 0.048
101 | PLALPLPRLVLP | 0.643 ± 0.026
102 | PLCLCCPIGIIS | 0.516 ± 0.008
103 | PLFAPLCLNSNR | 0.666 ± 0.016
104 | PLFASLHPSGPL | 0.699 ± 0.032
105 | PLGDLGPRLRKP | 0.669 ± 0.039
106 | PLGPSTQHPLSI | 0.687 ± 0.025
107 | PLHMWFSLLKPS | 0.716 ± 0.074
108 | PLHNPPTRRTTP | 0.67 ± 0.056
109 | PLHPQPAATPRS | 0.713 ± 0.023
110 | PLHPSRPPPSSP | 0.708 ± 0.033
111 | PLIYFLASNSRF | 0.713 ± 0.069
112 | PLLDEQCLGIDS | 0.658 ± 0.015
113 | PLLPFRYTRSGT | 0.68 ± 0.07
114 | PLLPLAASPPPP | 0.683 ± 0.051
115 | PLLPPLPPPLPP | 0.692 ± 0.1

Row | Sequence | protein stability index
116 | PLLPSPAPLHPP | 0.583 ± 0.044
117 | PLLRPRLRPFPR | 0.704 ± 0.049
118 | PLNQSYFVFSGN | 0.724 ± 0.019
119 | PLPIHSHPPPVP | 0.615 ± 0.0068
120 | PLPIPHASPTLA | 0.641 ± 0.025
121 | PLPIPSPLRSSF | 0.689 ± 0.053
122 | PLPLPPSVTSLL | 0.729 ± 0.044
123 | PLPPILPAPPPT | 0.704 ± 0.028
124 | PLPPLLPPSPPP | 0.767 ± 0.0085
125 | PLPPLPPPPPAA | 0.682 ± 0.038
126 | PLPPLPPPTAPP | 0.693 ± 0.029
127 | PLPPPPLLALCS | 0.531 ± 0.02
128 | PLPPPPPPPLPP | 0.737 ± 0.011
129 | PLPPPPRPPAPL | 0.688 ± 0.0072
130 | PLPPPPRPPPNP | 0.665 ± 0.01
131 | PLPPPPRPRPPL | 0.721 ± 0.04
132 | PLPPPPTPPVLP | 0.691 ± 0.016
133 | PLPPPRPSPGLL | 0.67 ± 0.1
134 | PLPPPSGLLSRL | 0.902 ± 0.047
135 | PLPPSHPPTGPP | 0.661 ± 0.012
136 | PLPPTFPSPLPP | 0.665 ± 0.008
137 | PLPPTPPPLAPP | 0.644 ± 0.086
138 | PLPRHSSPLPHI | 0.684 ± 0.0089

Row | Sequence | protein stability index
139 | PLPRPPSPPYPP | 0.65 ± 0.035
140 | PLPRPRHHEPNS | 0.75 ± 0.044
141 | PLPRTPTLPTPE | 0.635 ± 0.036
142 | PLPSPPAPNSPQ | 0.6793 ± 0.0053
143 | PLPSSSTRSTSP | 0.714 ± 0.013
144 | PLPYPPTSPTPR | 0.678 ± 0.0078
145 | PLPYSPPLHVYP | 0.691 ± 0.023
146 | PLRAHLYRPSVP | 0.69 ± 0.03
147 | PLRALLPTRCNL | 0.732 ± 0.067
148 | PLRGRRPIFPAP | 0.724 ± 0.088
149 | PLRPPSSPLWHT | 0.6937 ± 0.0037
150 | PLRRSTSPLILL | 0.648 ± 0.033
151 | PLRSLNHSGRPP | 0.641 ± 0.06
152 | PLRSLPRPLSST | 0.65913 ± 0.00011
153 | PLRSPSYPPPPP | 0.6814 ± 0.00091
154 | PLRTLFGDHLLV | 0.6826 ± 0.002
155 | PLSLRLCYLPWY | 0.701 ± 0.0086
156 | PLSPLVPVRTRP | 0.682 ± 0.072
157 | PLSPPLPLPLPL | 0.75 ± 0.037
158 | PLSPPPAPLPSS | 0.747 ± 0.071
159 | PLSPPPPGPPAS | 0.6037 ± 0.0024
160 | PLSPPPPPPLPA | 0.71 ± 0.011
